Residue numbers refer to the chain shown, from its start. Where “and” joins values, the source holds several entries; their conditions need not be identical. Equal entries are not always repeated. Where two headings read alike, the source gives them in different places. Marks after values point to notes of the source that are not given here.
B1: mFAP2: SEQ ID NO:38; variant of b11L5F.1 with 6-residue insertion in the seventh β-turn (protein)
chain: MSRAAQLLPGTWQVTMTNEDGQTSQGQMHFQPRSPYTMDVVAQGTISDGRPISGYGKVTVKTPDTLDVDITYPSLGNIKAQGQITMDSPTQFKFDATTKGAGNFTGRLTGTLQRQE
modifications: (1)..(1) optionally absent
B2: mFAP2.1: SEQ ID NO:40 (protein)
chain: B1 chain with P51T, S53V
modifications: (1)..(1) optionally absent
B3: mFAP2.2: SEQ ID NO:41 (protein)
chain: B1 chain with S53V
modifications: (1)..(1) optionally absent

Columns and labels:
[1] = unbound, free DFHBI in liquid buffer; Paige et al., 2011; cited from earlier work
[2] = cited from earlier work
[3] = Photophysical characterization (absorbance, excitation, emission, extinction coefficient, quantum yield); format: physicochemical
[4] = Fluorescence activation / brightness with DFHBI; format: biochemical; conditions: normalized 0 to 1 across all three chromophores; average ± SD of two protein concentrations
Protocol: (§1) Fluorescence binding assay. Protein-activated DFHBI fluorescence signals were measured in 96-well plate format (Corning 3650) on a Synergy neo2 plate reader (BioTek, Inc) with λex=450 nm or 460 nm and λem=500 nm or 510 nm. Binding reactions were performed at […] in PBS pH7.4 buffer. Protein concentrations were determined by 280 nm absorbance as described above. DFHBI (Lucerna, Inc) were resuspended in DMSO as instructed to make 100 mM stock and diluted in PBS to 0.5-10 μM. Approximate emission spectra were recorded for active designs from 490 to 600 nm.
(§2) Table 3A-C. Brightness and chromophore affinities of selected mFAP variants. Fluorescence brightness measurements at 10 μM (top table) and 100 nM (middle table) chromophore concentrations were normalized from 0 to 1 across all three chromophores (DFHBI, DFHBI-1T, and DFHO), and the normalized values for two protein concentrations tested for each chromophore at each chromophore concentration were averaged and standard deviations of the average computed. Reported values are the normalized averages and standard deviations of the means for each chromophore concentration and each chromophore. Reported relative densitometry values are the relative densitometry values normalized from 0 to 1 and represent how well each design expresses relative to one another in Lemo21(DE3) E. coli cultures. Thermodynamic dissociation constants (bottom table) are obtained by non-linear least squares fitting of chromophore titrations (n=1) to a single binding site isotherm, and values reported with the standard deviation of the fit. Where the obtained Kd values are below the protein concentration tested, the Kd and standard deviation of the fit are reported in parentheses. Values with “N/D” were not determined.

[5] = Chromophore titration, fit to single binding site isotherm: DFHO; conditions: n=1 titration; ± SD of the fit; Table 3C
Protocol: as §2

[6] = Fluorescence brightness with DFHBI-1T; format: biochemical; conditions: normalized 0 to 1 across all three chromophores; average ± SD of two protein concentrations
Protocol: as §2

[7] = Chromophore titration, fit to single binding site isotherm: DFHBI-1T; conditions: n=1 titration; ± SD of the fit; Table 3C
Protocol: as §2

[8] = system: E. coli, yeast, and mammalian cells; test: Confocal imaging of cells expressing mFAPs with DFHBI; format: cell-based; conditions: 20 μM DFHBI
Protocol: To determine whether the designed DFHBI-binding fluorescence-activating proteins function in living cells, we imaged mFAP1- and mFAP2-DFHBI complexes in E. coli, yeast, and mammalian cells by confocal microscopy. […] The quantum yield of mFAP1 and mFAP2 in complex with DFHBI is 2.0% and 2.1% respectively (Table 2).
Confocal image acquisition. Mammalian cell imaging of mFAP1 and mFAP2 was performed in NIH3T3 cells (Flp-In-3T3, Thermo Fisher Scientific, Inc). NIH3T3 cells were cultured in high-glucose DMEM, 4 mM L-glutamine, 10% fetal bovine serum (FBS, Life Technologies, Inc) at 37 degrees Celsius, 5% CO2. Cells were plated at 4×10^4 cells/mL in 35 mm glass-bottomed dishes (Matek, Inc) that were coated with poly-D-lysine. Cells were transfected 24 hours after plating with Lipofectamine™ 3000 (Thermo Fisher Scientific, Inc) at a ratio of 3 μL reagent:1 μL DNA, according to manufacturer's instructions, with […] plasmids of mFAPs or mFAP fusions (1.25 μg mCherry™ plasmid was added to the cytosolic constructs as a transfection control). Right before imaging, cell media was replaced with FluorBrite™ DMEM (Thermo Fisher Scientific, Inc) media supplemented with GlutaMax™ (Thermo Fisher Scientific, Inc) and 10% v/v FBS, and 20 μM DFHBI. […] A white light laser of 488 was used to excite the DFHBI and detected by a HyD detector, over a range of 495-550 nm. […]

[9] = Fluorescence brightness with DFHO; format: biochemical; conditions: normalized 0 to 1 across all three chromophores; average ± SD of two protein concentrations
Protocol: as §2

[10] = Chromophore titration, fit to single binding site isotherm: DFHBI
Protocol: as §1, §2

[11] = pH-dependent fluorescence of mFAP/DFHBI complexes; format: biochemical
From the text: FIG. 22: In vitro characterization of the pH-responsive mFAP_pH and comparison to the existing pHRed system and pH-unresponsive mFAP2b. (a-c) Chemical basis of pH-responsiveness in mFAP_pH. (a) Chemical structures of protonated tautomers and deprotonated resonance structures of DFHBI. […] The arrangement of intermolecular hydrogen bonds in the binding site of mFAP2b (c, binding pocket of the design model with the phenolate form of DFHBI) has low shape complementarity to the protonated DFHBI tautomers. The mutations W27M and W93F improve binding to the protonated DFHBI tautomers (b, model of mFAP_pH binding pocket with the phenolic form of DFHBI). […] (d) Normalized fluorescence excitation spectra of the mFAP_pH/DFHBI complex are shown for a pH titration from pH 3.63 to pH 8.38. (e) mFAP_pH normalized fluorescence emission spectra at pH 3.63 and pH 8.38. […] (f) Binding of mFAP_pH to both the phenolic and phenolate forms of DFHBI results in a high fluorescence ratio fold-change from low to high pH. (h, i) pH-dependent fluorescence of the mFAPpH/DFHBI complex compared to the previously described pHRed system. […] (i) Fluorescence ratios (Fratio) of unnormalized fluorescence measurements from panel (h) for mFAP_pH and pHRed. […]
We sought to further improve fluorescence of the complex at acidic and neutral pH and built a site-directed mutagenesis (SDM) library at 15 positions of mFAP2.1. […]

[12] = Circular dichroism, thermal and GuHCl denaturation; format: physicochemical; conditions: CD in the absence of DFHBI, pH 2.93
Protocol: Circular dichroism (CD). Purified protein samples were prepared at 0.5 mg/ml in 20 mM Tris buffer (150 mM NaCl, pH8.0) or PBS buffer (25 mM phosphate, 150 mM NaCl, pH7.4). Wavelength scans from 195 nm to 260 nm were recorded at 25 degrees Celsius, 75 degrees Celsius, 95 degrees Celsius and cooling back to 25 degrees Celsius. Thermal denaturation was monitored at 220 nm or 226 nm from 25 degrees Celsius to 95 degrees Celsius. Near-UV wavelength scan from 240 nm to 320 nm and tryptophan fluorescence emission were recorded in the absence and presence of 5M guanidinium chloride (GuHCl). Chemical denaturation in GuHCl was monitored by both tryptophan fluorescence and near-UV CD signal at 285 nm. The concentration of the GuHCl stock solution was measured with a refractometer (Spectronic Instruments, Inc). Far-UV CD experiments were performed on an AVIV model 420 CD spectrometer (Aviv Biomedical, Inc). Near-UV CD and tryptophan fluorescence experiments were performed on a Jasco J-1500 CD spectrometer (Jasco, Inc). Protein concentrations were determined by 280 nm absorbance with a NanoDrop™spectrophotometer (ThermoScientific, Inc). Melting temperatures were estimated by smoothing the sparse data with a Savitsky-Golay filter of order 3 and approximating the smoothed data with a cubic spline to compute derivatives. Reported Tm values are the inflection points of the melting curves.

[13] = previously reported value, Table 4
[14] = n=1 titration, ± SD of the fit, Table 3C, read-out: DFHBI Kd

| Molecule | Fluorescence brightness, 100 nM DFHBI [4] | Fluorescence brightness, 10 μM DFHBI [4] | Kd [5] [µM] | Fluorescence brightness, 100 nM DFHBI-1T [6] | Fluorescence brightness, 10 μM DFHBI-1T [6] | Kd [7] [µM] | Fluorescence brightness, 100 nM DFHO [9] | Fluorescence brightness, 10 μM DFHO [9] | Kd [10, 14] [µM] | also measured |
| --- | --- | --- | --- | --- | --- | --- | --- | --- | --- | --- |
| CC1=N/C(=C\c2cc(F)c(O)c(F)c2)C(=O)N1C [DFHBI, (Z)-4-(3,5-difluoro-4-hydroxybenzylidene)-1,2-dimethyl-1H-imidazol-5(4H)-one] | – | – | – | – | – | – | – | – | – | pKa [1]: 5.5; Absolute Quantum Yield ([2]; previously reported value [1], Table 4): 0.001^#; λabs [2, 13]: 418^†# nm; λem [2, 13]: 489^† nm; λex [2, 13]: 423^† nm; Reported Quantum Yield ([2]; previously reported value): 0.0007^†; Relative Quantum Yield ([2]; reported value (ref 25), Table 2): 0.0007***; Extinction Coefficient ([3]; Table 2): 31,935 M^−1cm^−1; Absolute Quantum Yield ([3]; integrating sphere, Table 2): 0.001; λabs ([3]; peak absorbance wavelength, Table 2): 418 nm |
| B1 | 0.12 ± 0.0 | 0.14 ± 0.03 | 22.7 ± 9.66 | 0.15 ± 0.01 | 0.33 ± 0.04 | 43.2 ± 7.01 | 0.01 ± 0.0 | 0.01 ± 0.0 | 1.15 ± 0.16 | In vivo fluorescence activation [8]: showed in vivo fluorescence activation; Quantum yield in complex with DFHBI ([3]; absolute): 2.1%; Kd ([10]; read-out: Dissociation constant of DFHBI): ~0.2 µM and ~0.18 µM |
| B2 | 0.13 ± 0.0 | 0.07 ± 0.02 | – | 0.34 ± 0.01 | 0.25 ± 0.01 | – | 0.01 ± 0.0 | 0.01 ± 0.0 | – | Fluorescence in the presence of DFHBI at acidic pH ([11]; pH 3.66): higher fluorescence; Stability at low pH [12]: improved stability |
| B3 | 0.13 ± 0.0 | 0.17 ± 0.03 | 22.7 ± 9.66 | 0.33 ± 0.02 | 0.55 ± 0.02 | 43.2 ± 7.01 | 0.01 ± 0.0 | 0.01 ± 0.0 | 1.15 ± 0.16 | Fluorescence ratio fold-change, higher than mFAP2.1 ([11]; across pH 3.66-7.36): ~1.3 fold |

From patent US20210047373A1, “BETA BARREL POLYPEPTIDES AND METHODS FOR THEIR USE” (UNIVERSITY OF WASHINGTON, priority 2018, published 2021)
